We go through two variants from IntAct's records for PubMed 15448699.

Sequences and labels used below:
B1: Protein SIC1 (Saccharomyces cerevisiae), P38634 (parent)
chain: MTPSTPPRSRGTRYLAQPSGNTSSSALMQGQKTPQKPSQNLVPVTPSTTKSFKNAPLLAPPNSNMGMTSPFNGLTSPQRSPFPKSSVKRTLFQFESHDNGTVREEQEPLGRVNRILFPTQQNVDIDAAEEEEEGEVLLPPSRPTSARQLHLSLERDEFDQTHRKKIIKDVPGTPSDKVITFELAKNWNNNSPKNDARSQESEDEEDIIINPVRVGKNPFASDELVTQEIRNERKRAMLRENPDIEDVITYVNKKGEVVEKRRLTDEEKRRFKPKALFQSRDQEH
partner: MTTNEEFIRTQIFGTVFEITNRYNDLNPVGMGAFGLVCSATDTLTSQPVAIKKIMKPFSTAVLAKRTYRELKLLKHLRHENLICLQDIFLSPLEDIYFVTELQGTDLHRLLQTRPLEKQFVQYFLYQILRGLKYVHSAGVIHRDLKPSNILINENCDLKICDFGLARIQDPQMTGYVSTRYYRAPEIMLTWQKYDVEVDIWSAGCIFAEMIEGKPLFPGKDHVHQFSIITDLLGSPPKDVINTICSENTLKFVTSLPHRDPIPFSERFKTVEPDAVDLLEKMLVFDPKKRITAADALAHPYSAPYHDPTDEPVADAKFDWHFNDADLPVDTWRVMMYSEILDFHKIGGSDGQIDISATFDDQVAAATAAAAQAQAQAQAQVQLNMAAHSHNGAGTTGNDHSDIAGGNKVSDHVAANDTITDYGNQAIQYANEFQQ
B2: Protein SIC1 (Saccharomyces cerevisiae), P38634 (parent)
chain: B1 chain
partner: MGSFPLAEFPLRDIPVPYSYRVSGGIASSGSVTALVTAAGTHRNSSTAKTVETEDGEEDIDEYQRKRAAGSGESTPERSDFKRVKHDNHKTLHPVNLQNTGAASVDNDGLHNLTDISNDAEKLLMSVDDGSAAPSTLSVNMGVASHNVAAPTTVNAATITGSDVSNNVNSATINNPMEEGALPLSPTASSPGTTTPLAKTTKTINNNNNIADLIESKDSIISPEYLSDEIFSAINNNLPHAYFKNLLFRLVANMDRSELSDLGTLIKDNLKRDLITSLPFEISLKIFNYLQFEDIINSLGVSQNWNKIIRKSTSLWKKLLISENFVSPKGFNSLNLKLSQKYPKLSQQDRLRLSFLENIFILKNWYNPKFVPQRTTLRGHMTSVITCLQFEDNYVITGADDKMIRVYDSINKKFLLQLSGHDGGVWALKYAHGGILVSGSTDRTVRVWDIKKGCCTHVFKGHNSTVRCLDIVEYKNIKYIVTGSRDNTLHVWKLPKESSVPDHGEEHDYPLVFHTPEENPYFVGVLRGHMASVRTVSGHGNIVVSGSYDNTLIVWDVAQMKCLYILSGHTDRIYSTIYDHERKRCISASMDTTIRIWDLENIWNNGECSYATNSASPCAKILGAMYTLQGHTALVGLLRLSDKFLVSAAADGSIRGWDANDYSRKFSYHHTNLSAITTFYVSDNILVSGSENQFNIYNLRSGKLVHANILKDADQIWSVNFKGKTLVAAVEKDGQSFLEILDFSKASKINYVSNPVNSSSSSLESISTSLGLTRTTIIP

The variants in the first test derive from B1. To be noted: with hog1_yeast HOG1, P32485.
For the variant MTPSTPPRSRGTRYLAQPSGNTSSSALMQGQKTPQKPSQNLVPVTPSTTKSFKNAPLLAPPNSNMGMTSPFNGLTSPQRSPFPKSSVKRTLFQFESHDNGTVREEQEPLGRVNRILFPTQQNVDIDAAEEEEEGEVLLPPSRPTSARQLHLSLERDEFDQTHRKKIIKDVPGEPSDKVITFELAKNWNNNSPKNDARSQESEDEEDIIINPVRVGKNPFASDELVTQEIRNERKRAMLRENPDIEDVITYVNKKGEVVEKRRLTDEEKRRFKPKALFQSRDQEH [T173E], the “effect of a mutation on the interaction” value is recorded as “disrupting interaction”.

The next test covers variants of B2. Particulars: with cdc4_yeast CDC4, P07834.
Regarding MTPSTPPRSRGTRYLAQPSGNTSSSALMQGQKTPQKPSQNLVPVTPSTTKSFKNAPLLAPPNSNMGMTSPFNGLTSPQRSPFPKSSVKRTLFQFESHDNGTVREEQEPLGRVNRILFPTQQNVDIDAAEEEEEGEVLLPPSRPTSARQLHLSLERDEFDQTHRKKIIKDVPGEPSDKVITFELAKNWNNNSPKNDARSQESEDEEDIIINPVRVGKNPFASDELVTQEIRNERKRAMLRENPDIEDVITYVNKKGEVVEKRRLTDEEKRRFKPKALFQSRDQEH [T173E], the “effect of a mutation on the interaction” value was “decreasing interaction”.
